The nature of series [1]: Solubility test: CPD 1 dissolved in alkaline MQW by stirring, visual control. The format is physicochemical. The conditions noted are these: in MQW (alkaline, NaOH). The protocol: To test solubility, CPD 1 was dissolved in alkaline MQW (pH adjusted with NaOH) by stirring.
Series [2] deals with hAMYR2 (Homo sapiens, UniProt P30988). The conditions noted are these: as described in WO 2018/046719; cited from earlier work.
Series [3] has as its target hAMYR1 (Homo sapiens, UniProt P30988). The conditions noted are these: as described in WO 2018/046719; cited from earlier work.
Series [4] has as its target T1, hAMYR3 (Homo sapiens, UniProt P30988).
T1 sequence (P30988 25-474): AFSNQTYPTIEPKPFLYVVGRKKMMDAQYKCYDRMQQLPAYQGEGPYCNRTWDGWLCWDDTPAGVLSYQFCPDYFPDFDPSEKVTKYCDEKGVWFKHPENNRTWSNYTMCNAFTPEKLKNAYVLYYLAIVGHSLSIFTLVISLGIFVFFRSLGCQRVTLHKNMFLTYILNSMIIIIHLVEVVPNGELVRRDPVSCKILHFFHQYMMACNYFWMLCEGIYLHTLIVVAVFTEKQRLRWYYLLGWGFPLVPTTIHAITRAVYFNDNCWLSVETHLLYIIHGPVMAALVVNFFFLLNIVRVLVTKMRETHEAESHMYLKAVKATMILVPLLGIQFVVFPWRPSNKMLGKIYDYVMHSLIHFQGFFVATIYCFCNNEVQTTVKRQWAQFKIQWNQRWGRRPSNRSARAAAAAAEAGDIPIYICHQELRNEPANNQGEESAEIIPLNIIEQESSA
T1 sequence (O60896 24-148 partner): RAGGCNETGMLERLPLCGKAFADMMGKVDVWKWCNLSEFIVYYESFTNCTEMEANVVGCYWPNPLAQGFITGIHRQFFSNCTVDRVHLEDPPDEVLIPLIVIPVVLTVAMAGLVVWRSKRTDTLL
The settings on record: as described in WO 2018/046719; cited from earlier work.

Series [5] in a line: Dynamic light scattering (DLS) (ASSAY IIIc), peptide particle size. Type of series: physicochemical. The conditions noted are these: initial z-average by DLS, 1 mg/ml CPD 1, 20 mM TRIS, 118 mM NaCl. The procedure:
Dynamic Light Scattering (DLS) (ASSAY IIIc)
Peptide particle size distribution was determined with dynamic light scattering analysis. The standard DLS experiment is conducted in a nunc 96 well plate with a sample volume of 165 μL and measured in a DynaPro Plate reader II instrument. Typically used parameters were temperature at 25° C., acquisition time 2 s, 50 acquisitions per sample, Detection: Hydrodynamic radius Rh, Correlation function cut off [μs]: […] and Peak radius cut off [nm]: 0.5-1000.

A short description of series [6]: pI of the peptide. Type of series: physicochemical.
The nature of series [7]: Physical stability evaluation by ThT-stress test (ASSAY IIId), lag-time of fibril formation. The conditions noted are these: for ThT lag time: 1 mg/ml CPD 1, 20 mM TRIS, 118 mM NaCl. The format is physicochemical. The procedure:
Physical Stability Evaluation by ThT-Stress Test (ASSAY IIId)
A 1 mM ThT stock solution was prepared and 12 μL was mixed with 288 μL of CPD 1 formulation. Samples were loaded in a 96-well black fluorescence plate (clear bottom) in duplicate 2×150 μL. Data were collected in a Fluorescence Plate reader from Biotek Synergy™ H4 Hybrid Multi-Mode at fixed intervals of 10 min, each preceded by 300 s of auto mixing (agitation), over a period of up to 60 hours at 40° C. Physical stability, expressed as lag-time of fibril formation (in hours), was defined as the intersection between two linear regressions representing the initial stable phase and the growth phase.
Physical stability was evaluated in terms of fibril formation by ThT-stress test measured over 60 hours at 40° C. Initial peptide particle size (z-average) was also determined by DLS.

The conditions of series [8]: human trials; cited from earlier work.

Numbered stars: 1 amine (or outer) side, 2 acyl side, 3 side chain; on linkers, the order of the positions; unused ones are H or OH. Bridge positions count the residues as written; N and C are the ends. Square brackets hold non-standard residues; d marks the D form. * marks the point of attachment. C20 diacid = O=C(O)CCCCCCCCCCCCCCCCCCC(=O)*; γGlu = O=C(O)[C@H](CCC(=O)[*:2])N[*:1]; Hyp = O=C(O)[C@@H]1C[C@@H](O)CN1; NMeI = CC[C@H](C)[C@H](NC)C(=O)O; Aad = N[C@@H](CCCC(=O)O)C(=O)O; Sar = CNCC(=O)O Where only a bound is given, the exact number is not on record here.

hAMYR2, sequence (O60895 43-175 partner, one chain of several): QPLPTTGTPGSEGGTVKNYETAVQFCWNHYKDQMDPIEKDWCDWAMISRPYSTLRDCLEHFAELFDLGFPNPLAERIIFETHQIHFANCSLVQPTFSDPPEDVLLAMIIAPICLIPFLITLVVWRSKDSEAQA
hAMYR1, sequence (O60894 27-148 partner, one chain of several): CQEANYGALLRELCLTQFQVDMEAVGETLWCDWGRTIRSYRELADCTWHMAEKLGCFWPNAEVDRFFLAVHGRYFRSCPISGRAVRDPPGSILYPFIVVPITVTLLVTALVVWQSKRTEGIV

For the molecule “[19CD]-isoGlu-RD( )GTATK( )ATERLA-Aad-FLQRSSF-Gly(Me)-A-Ile(Me)-LSSTEVGSNT-Hyp-NH2 ({C20 diacid}-[γGlu]RDGTATKATERLA[Aad]FLQRSSF[Sar]A[NMeI]LSSTEVGSNT[Hyp]-NH2; lactam 3-8) [CPD 1]”, the “Concentration at which CPD 1 could be dissolved to a clear solution” value in series [1] is “up to 50 mg/ml”. The “agonist activity at hAMYR2” value in series [2] is “agonist activity”. In addition, the “agonist activity at hAMYR1” value in series [3] is reported as “agonist activity”. Further, the “agonist activity at hAMYR3” value in series [4] is listed as “agonist activity”. Also, the “Peptide particle size (nm)” value was 3.3 nm in series [5] (pH 5.8); 4.0 nm in series [5] (pH 6.0); 3.2 nm in series [5] (pH 6.3); 3.0 nm in series [5] (pH 6.6); 3.7 nm in series [5] (pH 6.8); 3.0 nm in series [5] (pH 7.0). The “pI of the peptide” value in series [6] turned out to be 4.36. Moreover, the “ThT lag time” value in series [7] (pH 5.8, ThT-stress test over 60 hours at 40° C.) is above 60 h; in series [7] (pH 6.0, over 60 hours at 40° C.), above 60 h; in series [7] (pH 6.3, over 60 hours at 40° C.), above 60 h; in series [7] (pH 6.6, over 60 hours at 40° C.) it was above 60 h; in series [7] (pH 6.8, over 60 hours at 40° C.), above 60 h; in series [7] (pH 7.0, over 60 hours at 40° C.), above 60 h. In series [7] (pH range 5.8-7.0, ThT-stress test and DLS (Table 3)), the “stability towards fibrillation and aggregation” value was “stable towards fibrillation and aggregation impacting peptide particle size”.
Consider `CC[C@H](C)[C@H](NC(=O)[C@@H]1CCCN1C(=O)CNC(=O)[C@H](Cc1ccccc1)NC(=O)[C@H](CC(N)=O)NC(=O)[C@H](CC(N)=O)NC(=O)[C@H](CO)NC(=O)[C@H](CO)NC(=O)[C@H](Cc1c[nH]cn1)NC(=O)[C@@H](NC(=O)[C@H](CC(C)C)NC(=O)[C@H](Cc1ccccc1)NC(=O)[C@H](CC(N)=O)NC(=O)[C@H](C)NC(=O)[C@H](CC(C)C)NC(=O)[C@H](CCCNC(=N)N)NC(=O)[C@H](CCC(N)=O)NC(=O)[C@@H](NC(=O)[C@H](C)NC(=O)[C@@H]1CSSC[C@H](NC(=O)[C@@H](N)CCCCN)C(=O)N[C@@H](CC(N)=O)C(=O)N[C@@H]([C@@H](C)O)C(=O)N[C@@H](C)C(=O)N[C@@H]([C@@H](C)O)C(=O)N1)[C@@H](C)O)C(C)C)C(=O)N[C@@H](CC(C)C)C(=O)N1CCC[C@H]1C(=O)N1CCC[C@H]1C(=O)N[C@H](C(=O)N[C@@H](CC(N)=O)C(=O)N[C@H](C(=O)NCC(=O)N[C@@H](CO)C(=O)N[C@@H](CC(N)=O)C(=O)N[C@H](C(=O)N[C@@H](Cc1ccc(O)cc1)C(N)=O)[C@@H](C)O)C(C)C)[C@@H](C)O` [pramlintide], for which, in series [8], the “effect on body weight” value is reported as “reduce body weight or reduce weight gain”.

These data come from US12616737B2, “Liquid formulations of amylin analogues” (Zealand Pharma A/S, priority 2022, dated 2026).
